Measurements reported in patent US12576129B2, “Anthelmintic compositions and methods” (priority 2016, dated 2026).

Legend:
[1] = test system: Ancylostoma ceylanicum hookworms; experiment: A. ceylanicum hookworm curative experiment in Syrian hamsters (worm burdens, fecal egg counts); format: in vivo
Description: Studies of Ancylostoma ceylanicum hookworms in Syrian hamsters were carried out as previously described (Hu, Y., et al. PLoS One, 8, e70702, 2013; Hu, Y., et al. Appl Environ Microbiol, 79, 5527-5532, 2013). Briefly, 4-6 week old male hamsters were infected with 150 infectious third staged larvae per os. On day 17 post-infection, an overnight collection of stool is taken and fecal egg counts (FECs) taken the next day. The hamsters are assigned to groups based on FEC so that there is roughly the same level of infection (same average egg per gram of feces or EPG) in all groups. On day 18 post-infection, the hamsters are weighed for dosing purposes and then gavaged with treatments as described in each experiment. On day 21 post-infection, another overnight collection of stool is taken for FECs. On day 22 post-infection, the animals were euthanized. Total hookworms in the small intestine were counted and EPGs calculated.
For all experiments involving cimetidine, hamsters or mice were pre-gavaged with 200 μL of an 8.75% cimetidine solution 15 minutes prior to therapeutic treatment (Stepek, G., et al. Parasitology, 134, 103-112, 2007).
For in vivo curative experiments, male hamsters were infected per os with 150 A. ceylanicum infectious larvae. On day 17 postinoculation (p.i.), a fecal sample was collected from each hamster, and the number of eggs was counted using the modified McMaster technique (13). On the basis of these fecal egg counts, the hamsters were segregated to ensure that the groups (control and treatment) had roughly equivalent infection levels. […] The hamsters were sacrificed on day 22 p.i., and intestinal parasite burdens were determined as described previously (14). The one-tailed Mann-Whitney test was performed to compare the two groups for significance in the experiment using a dose of 10 mg/kg of body weight (data were calculated and plotted using Prism 5 [GraphPad Software Inc., La Jolla, CA]). […]

[2] = test system: Heligmosomoides polygyrus; experiment: Heligmosomoides polygyrus infection in STAT6-/- mice; format: in vivo; details: immunosuppressed mice lacking STAT6
Description: Such a result is not surprising given that Cry5B directly intoxicates STH parasites in vitro. This is not true of all anthelmintics, e.g., DEC and in some cases ivermectin, for which it appears that involvement of the immune system is important for their mechanism of action. To confirm that the immune system is not essential for Cry5B action, STAT6−/− mice were infected with Heligmosomoides polygyrus STH parasites. STAT6 is required for the TH2 response required for normal expulsion of STH parasites.

Ancylostoma caninum = Ancylostoma caninum hookworm infection in dogs (fecal egg count, capsule endoscopy); format: in vivo
Description: Two beagles were inoculated per os with 1000 Ancylostoma caninum larvae. Forty one days post-infection, stool was collected for determination of fecal egg loads and the dog intestines were imaged using capsule endoscopy to count hookworms (Lee, A., et al. Int. J. Parasitol. 41, 1377-1383, 2011). One dose of Cry5B SCL (˜40 mg/kg) was given by gavage on each of day 42 and 44 post-infection. On day 49 post-infection a final fecal egg count was taken and capsule endoscopy repeated for final hookworm counts.

[3] = test system: Ancylostoma ceylanicum hookworms; details: hamsters; purified protein at 10 mg/kg; previously published data (ref 14); cited from earlier work
[4] = Average of dogs (n = 2), 40 mg/kg
[5] = dogs (n = 2), post- vs pre-treatment, 40 mg/kg

B1: Cry5B: Bacillus thuringiensis crystal (Cry) protein Cry5B, SEQ ID NO:1; purified full-length protein (protein, listed as Bacillus thuringiensis)
chain: MATINELYPVPYNVLAHPIKEVDDPYSWSNLLKGIQEGWEEWGKTGQKKLFEDHLTIAWNLYKTGKLDYFALTKASISLIGFIPGAEAAVPFINMFVDFVWPKLFGANTEGKDQQLFNAIMDAVNKMVDNKFLSYNLSTLNKTIEGLQGNLGLFQNAIQVAICQGSTPERVNFDQNCTPCNPNQPCKDDLDRVASRFDTANSQFTQHLPEFKNPWSDENSTQEFKRTSVELTLPMYTTVATLHLLLYEGYIEFMTKWNFHNEQYLNNLKVELQQLIHSYSETVRTSFLQFLPTLNNRSKSSVNAYNRYVRNMTVNCLDIAATWPTFDTHNYHQGGKLDLTRIILSDTAGPIEEYTTGDKTSGPEHSNITPNNILDTPSPTYQHSFVSVDSIVYSRKELQQLDIATYSTNNSNNCHPYGLRLSYTDGSRYDYGDNQPDFTTSNNNYCHNSYTAPITLVNARHLYNAKGSLQNVESLVVSTVNGGSGSCICDAWINYLRPPQTSKNESRPDQKINVLYPITETVNKGTGGNLGVISAYVPMELVPENVIGDVNADTKLPLTQLKGFPFEKYGSEYNNRGISLVREWINGNNAVKLSNSQSVGIQITNQTKQKYEIRCRYASKGDNNVYFNVDLSENPFRNSISFGSTESSVVGVQGENGKYILKSITTVEIPAGSFYVHITNQGSSDLFLDRIEFVPKIQFQFCDNNNLHCDCNNPVDTDCTFCCVCTSLTDCDCNNPRGLDCTLCCQVENQLPSFVTLTDLQNITTQVNALVASSEHDTLATDVSDYEIEEVVLKVDALSGEVFGKEKKALRKLVNHTKRLSKARNLLIGGNFDNLDAWYRGRNVVNVSDHELFKSDHVLLPPPTLYSSYMFQKVEESKLKANTRYTVSGFIAHAEDLEIVVSRYGQEVKKVVQVPYGEAFPLTSRGAICCPPRSTSNGKPADPHFFSYSIDVGTLDVEANPGIELGLRIVERTGMARVSNLEIREDRPLKKNELRNVQRAARNWRTAYDQERAEVTALIQPVLNQINALYENEDWNGAIRSGVSYHDLEAIVLPTLPKLNHWFMSDMLGEQGSILAQFQEALDRAYTQLEESTILHNGHFTTDAANWTIEGDAHHAILEDGRRVLRLPDWSSSVSQTIEIENFDPDKEYQLVFHAQGEGTVSLQHGEEGEYVETHPHKSANFTTSHRQGVTFETNKVTVEITSEDGEFLVDHIALVEAPLPTDDQSSDGNTTSNTNSNTSMNNNQ
modifications: source = /note="Bacillus thuringiensis pesticidal crystal (Cry)"
% Parasite reduction ([1]; A. ceylanicum infections in hamsters, 10 mg/kg, This Example): 93% | efficacy after pre-exposure to two doses of Cry5B prior to infection ([1]; hamsters): not altered | effect of pre-neutralization of stomach acid on efficacy ([1]; hamsters pre-gavaged with cimetidine (and NaHCO3) before treatment): improved | efficacy against H. polygyrus [2]: effective | Fecal Egg Count Pre-Treatment (Ancylostoma caninum; Average of dogs (n = 2)): 12581 EPG of Feces | Hookworm Burden Pre-Treatment (Ancylostoma caninum; Average of dogs (n = 2)): 70 | Fecal Egg Count Post-Treatment (Ancylostoma caninum; [4]): 1081.5 EPG of Feces | Hookworm Burden Post-Treatment (Ancylostoma caninum; [4]): 3.5 | Hookworm Burden Pre-Treatment (Ancylostoma caninum; Dog 1, capsule endoscopy, day 41 post-infection): 84 | Hookworm Burden Post-Treatment (Ancylostoma caninum; Dog 1, capsule endoscopy, day 49, ~40 mg/kg on days 42 and 44): 4 | Fecal Egg Count Pre-Treatment (Ancylostoma caninum; Dog 1, day 41 post-infection): 15750 EPG of Feces | Fecal Egg Count Post-Treatment (Ancylostoma caninum; Dog 1, day 49 post-infection, ~40 mg/kg by gavage on days 42 and 44): 1590 EPG of Feces | Hookworm Burden Pre-Treatment (Ancylostoma caninum; Dog 2, capsule endoscopy, day 41 post-infection): 56 | Hookworm Burden Post-Treatment (Ancylostoma caninum; Dog 2, capsule endoscopy, day 49, ~40 mg/kg on days 42 and 44): 3 | Fecal Egg Count Pre-Treatment (Ancylostoma caninum; Dog 2, day 41 post-infection): 9412 EPG of Feces | Fecal Egg Count Post-Treatment (Ancylostoma caninum; Dog 2, day 49 post-infection, ~40 mg/kg by gavage on days 42 and 44): 573 EPG of Feces | % Reduction of Fecal Egg Count (Ancylostoma caninum; [5]): 91.4% | % Reduction of Hookworm Burden (Ancylostoma caninum; [5]): 95% | efficacy against A. caninum in dogs (Ancylostoma caninum; ~40 mg/kg by gavage on days 42 and 44 post-infection): highly effective | hookworm burden reduction [3]: 65%
